This data set can be described thus: soluble on expression in E. coli; label from the status in PepcDB or PDB records.
Take “KPPAESASQTAVAITQSSVKTMAPALQAIVDQSWQLQLSASPEMAYGMGDKSAAGKLQDLSPEALAKLNQGQIAILVQLKALDRSKLSKEDKINAQILEDQLQNEVDLYKYKDYYLPITAESGFHAYISSIAQGRFNTQEDYQNYLDKLKALPNYFAQQTYWLKQGLKEGITPPKATLKGFENSISAYILPVEKSSYFKPFTQYPNHFTEAQKAQLTQQGRALVEQNVIPTYQAFYDFMTQEYMPNTRDNIAANSLPNGDAFYENRVRYYTTLDITSAEVHELGLKEVKRIRQEMEQVIKSVGFKGSFADFLYFLRTDPQFYATSADQLLKEAAFIAKKADATLPKYFGKLPRKPYGIAPVPAEIAPKYTSGRYSGSNRDDEPGYYWVNTYALDKRPLYELEALTLHEAVPGHHLQISLNSELSSQPDFRRYSYISAFGEGWGLYSEYLGLEAGFYQDPYSNFGRLTYEMWRAARLVVDTGMHAQGWSREQAIEFMANNTALSLHNVTTEIDRYITWPGQALSYKIGELTIKRLRAKAEQALGDKFDIRAFHDAVLENGSVPMSVLEQQINDFIEAKKAA”: the “soluble on expression in E. coli” value was “soluble”.

For “KRGPSAVTVVTEQVETHEINQSLSLIGKLKAAESVVVASEVAGKVKQIAVKANQNVQQNQLLIQLDDDKAQAALVEAKAYLKDEERKLKEFQRLVKRNAITQTEIDAQKASVEIAQARLDAAKANLADLHITAPFSGTVGFIDFSRGKMVSAGTELLTLDDLSVMELDLQIPERYLSMLSVGMEVAAKTSAWGEQRFSGKVTGIDTRISAETLNLRVRIEFDNPENQLKPG”, the “soluble on expression in E. coli” value is recorded as “not soluble”.

Consider “KRGRSVLVLDHAKKPGRKILISGGGRCNFTNYDVSASNYLCQNPHFVKSALSQYTNWDFISMVSKHGIEFEERDHGQLFCVDAFTAKDIVKMLLAECDMPNIQQRYQCDVHTIEKTEEGFRLHAGTEPVECESLVVATGGLSMPKLGATPFGYKVAEQ”, for which the “soluble on expression in E. coli” value was “not soluble”. The value for “KRGTDLGRPINATFDFFSRLFSKRKNVHMTFFNSSTPLDVNYTPNQQEIDTILDKISRSGYESLTKEEKQKLFKASQK” was “not soluble”; that for “KTAFTAEVLAQSFSGEVQKLSSLVLPAEVIIAQSSIPGEGLGIFSKTWIKAGTEMGPFTGRVIAPEHVDICKNNNLMWEVFNEDGTVRYFIDASQEDHRSWMTYIKCARNEQEQNLEVVQIGTSIFYKAIEMIPPDQELLVWYGNSHNTFLGIPGVPGLEEDQKKNKHED” was “soluble”; that for “KVGILQFVTHDALDQIEKGIEDGLKEAGYKGDKVQITLLNAEGDQSKIQTMSKQLVNDKNDVVIGIATPAAQGLAAATKDIPVIMGAISDPVGAKLVKNLKHPEGNVTGTSNQVPIKQTVELVKSLTPNAKTIGILYASSEDNSQSQVESFKKYAEQDGLNVIEYAVPSTNEINTTMSVMTGKVDAIWTPQDNTIASSFSTVISLANQAKIPVYTTVDTMVKEGGLASVAQNQYELGKATARSAIKVLKGKKVKDIPVDVIDDGTPTLNLKVARDLNITIPDDVLKQSDIAVKADK” was “not soluble”. Take “KVGLIIISHGRIATETVNVVKELLGVKFPVAIDMPLDEKPINIYNKAVELSKIIDQGKGILFLVDIGSLTNIGQIVNKRTNISTKTIDRVDLLMALEATRKVSMGEEELDEIFFSLLKDRMGYNYELEKHIDKS”: the “soluble on expression in E. coli” value is recorded as “not soluble”. The entry for “LCPDAVAGIAVAAPHIYVEDITVANIAVALRAYRETTLRDRLARYHDDVDSTFASWTDTWLDPAFRQWNIEAYLPAITCPMLAMQGVDDEYGTLEQIRGIRRLAPQTRLLEIQDCGHSPHKDQPELVTRALAGFV” is “not soluble”. With “LDRQTERLQQGEVDVRFNMVSRMLDHPDLAERWPHLQGKLDNLSQEYELIRFWIDSDDPRYHYGRFSEPVQRLIADGAGRYELELPEHRYALTARVGVLPAREGRPRLTYVTAIDSAAFHEARTSTLKW”, the “soluble on expression in E. coli” value is reported as “not soluble”.

“LDSANQQASNESIEVRGKIKLGLLPETYEHLQPILFEFQDQYPQVELDIRNINNGFIDMFQQGLDIALHGGMLFDSDIVARKILTLDRCVVASPNYLQTHGTPATLEELSDHQCICFRWPNGNVDNLWHFQEQNVALKPKLISNNIGFIKSSTVLDRGISYIPKLLVKNELESGALVQVLSQYAVTEETGWLLYPQPKTLNQASRLLIEHLCNKIPKLL”: the “soluble on expression in E. coli” value is “soluble”. “LEGENSKQKVQMSIHQFTNICFKKCVESVNDSNLSSQEEQCLSNCVNRFLDTNIRIVNGLQNTR”: the “soluble on expression in E. coli” value is recorded as “soluble”. With “LENDRTTFRIRNLDSGEIIWSGMGAVYPVYSPSFDHAADAFAFAFSSPADPPEIHLLRDAETKSSINSHLDGVSPYPAEIVEWKAKDGEDLYGILRLIDPKNPLIVYIHGGPTSFSYASFLDRTSIYLGYGFNVFAPNYRGSVGKGRRYAELNVGDLGGKDFDDVISGIEFLKNTGKIATDRIYITGGSYGGYMSALAVMKTDIFRASVSLFGISDWVSFHGVSNLHLWDRLHMDADPWAFKKYDEYSPIRIMHEPKTPTLLMHGIKDPYVPIGQYYEFYRFLKEKNCEVRMIVFPREGHGFTEKEHIRRQYMETIRFMKDH”, the “soluble on expression in E. coli” value is listed as “not soluble”. The value for “LFSYKSTMWQFINKVTSDRINILNQYYEKFGIHILPQQVTNYRSAGIIVMDNIYVT” was “not soluble”. Turning to “LGGVAPEQVAYAVEQAGKRLQERDNAGVKVRPARLTDLDALEGMVAYWAGLGENLPRNRNELVRDIGSFAVAEHHGEVTGCASLYVYDSGLAEIRSLGVEAGWQSQGQGKAIVQHLVEKAREMAIKKVFVLTRVPEFFMKQDFIPTSRSLLPEKVLKDCDQCPRQH”, the “soluble on expression in E. coli” value is on record as “not soluble”. On to “LGSMAAAAAQGGGGGEPRRTEGVGPGVPGEVEMVKGQPFDVGPRYTQLQYIGEGAYGMVSSAYDHVRKTRVAIKKISPFEHQTYCQRTLREIQILLRFRHENVIGIRDILRASTLEAMRDVYIVQDLMETDLYKLLKSQQLSNDHICYFLYQILRGLKYIHSANVLHRDLKPSNLLINTTCDLKICDFGLARIADPEHDHTGFLTEYVATRWYRAPEIMLNSKGYTKSIDIWSVGCILAEMLSNRPIFPGKHYLDQLNHILGILGSPSQEDLNCIINMKARNYLQSLPSKTKVAWAKLFPKSDSKALDLLDRMLTFNPNKRITVEEALAHPYLEQYYDPTDEPVAEEPFTFAMELDDLPKERLKELIFQETARFQPGVLEAP”, for which the “soluble on expression in E. coli” value is reported as “soluble”. The value for “LHRILKVVFPKRKIVLWVIGGDLHLEVEKGRYRVDVLKSLQYLLVEGQAMKDALCGQGVENVKVMPNFKDISLFSPLHCHTPYTPSKVLRLVFFSRIMPDKGCDLILDLAHKLNERGYKDKFVIDFYGPIAPDYSKRFSSILDTLPNVHYQGTLD” was “not soluble”. In the case of “LMTIKCLLLAVMVCPFFITACSDKYSEQDRVQAINNADAPFGAGLLTFQISSDTQLNSLNEISNSCALLFLQASDKNTLQDIMNNPVLIKQFFIGTGKVDGILKVDKYVAMPGQEITLHIDRNEGTKYVGVVAGYYPFPGKQHMLLLDIPVDVVEEGWWNKSLHASLLPLSKKISMGKESISMK”, the “soluble on expression in E. coli” value is recorded as “not soluble”. The value for “LNLSEKQVVKIGILQYVTHDALDAIEKGVEDGLAQEGYKGKKVKLTVLNAEADQSKIQAMSKQLVNHHNDILIGIATPSAQGLAASTKDTPIIMGAVSDPLGAKLVTNMKKPTTNVTGLSNVVPTKQTVQLIKDITPNIKRIGILYASSEDNSVSQVTEFTKYAQKAGLEVLKYSVPSTNEIKTSMSVMTKKVDAVFVPQDNTIASAFRTVIVAANQANIPVYSSVDTMVEQGSIASVAQSQYGLGLETAKQAIKVLRGKPVKDVPVKVIDTGKPSLNLKAAKHLGIKIPKKIMKQAEITVKVD” was “not soluble”; that for “LPSGIIIKGIGGFYYVKTENGIYECKARGVFRKDSKIPLPGDEVVISVIDEEKKKGYIEEICERKIQLIRPAVANINQIALVVSVKSPLPDFVLLDKLLITVMQKELNAIICINKIDLDEGYKDVIIDCYKGTGVETVCVSSVLNVGFEQLAKMLEGKTTVFAGQSGVGKSTILNKILDSYVMETGEISDKIERGRHTTRHAELLELKSGGFVVDTPGFSSFELSEIEPKELQNYYPEFRDYIGKCRFAGCSHISEPGCMVKSALENGMINKDRYGRYIIFYNMLKDKQRRKYS” was “not soluble”.

(Values after the DeepSol protein solubility set.)
